Results on 106 sequences are retold here after the supplement of paper PMC9942255.

This data set concerns Bacillus subtilis DB104 (SP-AmyQ fusion secretion). The data set can be described thus: AmyQ secretion efficiency, weighted average sort bin (1 = best secretion, 10 = worst) (bin number (weighted average, 1-10)); higher = lower secretion efficiency. The method in brief:
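Designed signal peptides were fused to mature AmyQ and expressed from the amyE locus in B. subtilis DB104, and this library was loaded at about 0.3 cells per ~65 nL alginate bead together with fluorescein-starch. After about 13 h of growth at room temperature and nile red staining, occupied beads were split into 10 equally populated bins by green/red fluorescence ratio using large-particle flow cytometry. Amplicons from every bin were Illumina-sequenced. The secretion score is the average bin number weighted by read frequency and normalised to beads per bin, excluding low-abundance sequences.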

For MNLRKILLSSALSLGMLVSAAPYLATSS, the AmyQ secretion efficiency was found to be 5.88. For MNLRKILLSSALSLGMLVVSAAPVLATSS the value was 1.4; for MNLRKILLSSALSLVSAAPVLATSS, 3.92. For MNLRKIMSIMNIILLSSALSLGMLVSAAPVLATSS the value was 2.04. The same measure for MNLRKIRKKRALSLGMLVSAAPVLATSS: 7.46; for MNLRKIRRKKKKSLGMLVSAAPVLATSS: 7.69. The sequence MNLRKNSFFILLSSALSLGMLVSAAPVLATSS had an AmyQ secretion efficiency of 1.98. The same measure for MNLRKTYGSSALSLGMLVSAAPVLATSS: 6.93.

The sequence MNLRKTYSGRGYSLGMLVSAAPVLATSS yielded an AmyQ secretion efficiency of 6.74. MNLWMRKTLVVLFTIVTFGLVSPPAALMADKP displayed an AmyQ secretion efficiency of 2.15. The same measure for MNMLKRLSMLTVMIASVFIFSSHALAAQY: 1.63; for MNMSITYSLLALLAVVAFAFTDSSKAKAAEA: 2.51. MNRLFMKASLVLFAVVFVFAVKGAPAKAETH returned an AmyQ secretion efficiency of 1.75. As to MNRRKILLSSALSLGMLVSAAPVLATSS, the AmyQ secretion efficiency worked out at 2.39. For MNSCSQLIVCSLAAILLLIPSVSFAADS the value was 4.9. Consider MNSMTIWTIILGALLVCCIAVAYTLTKSQAGASSS, for which the AmyQ secretion efficiency amounted to 6.92.

Turning to MNSYINVLTMCFLGLILFVPTALADNS, the AmyQ secretion efficiency was 1.26. For MNTAIIIAIIAAVIVIAALITFNVRNASPG the value was 8.06; for MNVLLSALLLLLFAFEPSASGKKL, 7.25; for MPGKSAVLLSLIMLIAGFLISFSFQM, 7.65.

MPIFKKVMMCLAVTLVFGSMSFPTLTNSGGFKE: the AmyQ secretion efficiency was 6.15. For MPIKKKCLAVTLVFGSMSFPTLTNSGGFKE, the AmyQ secretion efficiency turned out to be 5.38. MPIKKKVMMCKRVTLVFGSMSFPTLTNSGGFKE gave an AmyQ secretion efficiency of 6.57. Take MPIKKKVMMCLAVMLVFLMMSFPTLTNSGGFKE: the AmyQ secretion efficiency came out at 3.23. Regarding MPIKKKVMMCLAVTLVFGSMDEETLTNSGGFKE, the AmyQ secretion efficiency turned out to be 6.94. For MPIKKKVMMCLAVTLVFGSMIFITLTNSGGFKE the value was 6.04. The same measure for MPIKKKVMMCLAVTLVFGSMRKRRRKNSGGFKE: 8.69. For MPIKKKVMMCLAVTLVFGSMRRKTLTNSGGFKE the value was 7.75; for MPIKKKVMMCLAVTLVFGSMSFPTLTNATSGGFKE, 2.8; for MPIKKKVMMCLAVTLVFGSMSFPTLTNDGGFKE, 5.45. On to MPIKKKVMMCLAVTLVFGSMSFPTLTNEGGFKE, for which the AmyQ secretion efficiency is 4.78. The same measure for MPIKKKVMMCLAVTLVFGSMSFPTLTNKGGFKE: 7.01.

MPIKKKVMMCLAVTLVFGSMSFPTLTNSGEFKE yielded an AmyQ secretion efficiency of 5.74. Regarding MPIKKKVMMCLAVTLVFGSMSFPTLTNSGFFKE, the AmyQ secretion efficiency was 4.32. The same measure for MPIKKKVMMCLAVTLVFGSMSFPTLTNSGGDED: 6.4; for MPIKKKVMMCLAVTLVFGSMSFPTLTNSGGFPE: 5.65; for MPIKKKVMMCLAVTLVFGSMSFPTLTNSGGFSG: 3.08. For MPIKKKVMMCLAVTLVFGSMSFPTLTNSGNFKE the value was 5.35; for MPIKKKVMMCLAVTLVFGSMSFPTLTNVGGFKE, 5.79. Take MPIKKKVMMCLAVTLVFGSMSFPTLTNWGGFKE: the AmyQ secretion efficiency came out at 7.59. The same measure for MPIKKKVMMCLAVTLVFGSMSSGGFKE: 5.66; for MPIKKKVMMCSKVTLVFGSMSFPTLTNSGGFKE: 7.22; for MPIKKKVMMCTSGTTSFGSMSFPTLTNSGGFKE: 7.09. The same measure for MPINTFVMMCLAVTLVFGSMSFPTLTNSGGFKE: 7.23. For MPKKCSVCLWILVLLLSCLSGKSAYAATS the value was 2.99. Sequence MPRKKKQKYRCLAVTLVFGSMSFPTLTNSGGFKE returned an AmyQ secretion efficiency of 6.94.

Turning to MPSCKQLIVCSLAAILLLIPSVSFAADS, the AmyQ secretion efficiency worked out at 3.5. Regarding MPTKKKVMKCLAVTLVFGSMSFPTLTNSGGFKE, the AmyQ secretion efficiency was found to be 7.16. For MPVLLSALLLLLFAFEPSASGKKL the value was 6.19; for MPYLKRGGLLLVTGLFMSLFAVTATASAQTG, 1.51; for MPYLKRKGYQYQSGLFMSLFAVTATASAQTG, 4.4. For MPYLKRKYRLLVTGLFMSLFAVTATASAQTG the value was 1.78; for MPYLKRLSIVLLLLVTGLFMSLFAVTATASAQTG, 1.6. Turning to MPYLKRMINFNNVLLLLVTGLFMSLFAVTATASAQTG, the AmyQ secretion efficiency stood at 1.05. The same measure for MPYLKRVLLLLVFFLFMFLFSAVTATASAQTG: 1.35; for MPYLKRVLLLLVTGLAVTATASAQTG: 1.97.

For MPYLKRVLLLLVTGLFMSLAVTATASAQTG, the AmyQ secretion efficiency amounted to 1.16.

MPYLKRVLLLLVTGLFMSLFAVTATASAEDD gave an AmyQ secretion efficiency of 3.73. The same measure for MPYLKRVLLLLVTGLFMSLFAVTATASAQDD: 3.08. The same measure for MPYLKRVLLLLVTGLFMSLFAVTATASAQRK: 2.03; for MPYLKRVLLLLVTGLFMSLFAVTATASAQTD: 1.91. Consider MPYLKRVLLLLVTGLFMSLFAVTATASAQTK, for which the AmyQ secretion efficiency is 1.71.

Turning to MPYLKRVLLLLVTGLFMSLFAVTATASARRR, the AmyQ secretion efficiency was 7.69. The same measure for MPYLKRVLLLLVTGLFMSLFAVTATASCQTG: 1.26; for MPYLKRVLLLLVTGLFMSLFAVTATASDQTG: 1.01. For MPYLKRVLLLLVTGLFMSLFAVTATASEQTG the value was 1.36; for MPYLKRVLLLLVTGLFMSLFAVTATASFQTG, 2.53; for MPYLKRVLLLLVTGLFMSLFAVTATASGQTG, 1.24. For MPYLKRVLLLLVTGLFMSLFAVTATASHQTG the value was 1.34. Sequence MPYLKRVLLLLVTGLFMSLFAVTATASIQTG registered an AmyQ secretion efficiency of 1.67. For MPYLKRVLLLLVTGLFMSLFAVTATASKQTG the value was 1.26; for MPYLKRVLLLLVTGLFMSLFAVTATASLQTG, 1.81.

Take MPYLKRVLLLLVTGLFMSLFAVTATASMQTG: the AmyQ secretion efficiency turned out to be 1.29. The same measure for MPYLKRVLLLLVTGLFMSLFAVTATASNQTG: 1.29; for MPYLKRVLLLLVTGLFMSLFAVTATASPQTG: 1.86; for MPYLKRVLLLLVTGLFMSLFAVTATASQQTG: 1.51. For the sequence MPYLKRVLLLLVTGLFMSLFAVTATASRQTG, the AmyQ secretion efficiency was found to be 1.19.

For the sequence MPYLKRVLLLLVTGLFMSLFAVTATASSQTG, the AmyQ secretion efficiency was determined as 1.19. The same measure for MPYLKRVLLLLVTGLFMSLFAVTATASTQTG: 1.44; for MPYLKRVLLLLVTGLFMSLFAVTATASVQTG: 1.13; for MPYLKRVLLLLVTGLFMSLFAVTATASWQTG: 2.84. The same measure for MPYLKRVLLLLVTGLFMSLFAVTATASYQTG: 1.77. For the sequence MPYLKRVLLLLVTGLFMSLFAVTATCSAQTG, the AmyQ secretion efficiency was determined as 1.27.

MPYLKRVLLLLVTGLFMSLFAVTATDSAQTG gave an AmyQ secretion efficiency of 6.72.

In turn, MPYLKRVLLLLVTGLFMSLFAVTATESAQTG displayed an AmyQ secretion efficiency of 4.4.

Turning to MPYLKRVLLLLVTGLFMSLFAVTATFSAQTG, the AmyQ secretion efficiency is 4.6. The same measure for MPYLKRVLLLLVTGLFMSLFAVTATGSAQTG: 1.13; for MPYLKRVLLLLVTGLFMSLFAVTATHSAQTG: 6.96.

Take MPYLKRVLLLLVTGLFMSLFAVTATISAQTG: the AmyQ secretion efficiency was 1.51. Turning to MPYLKRVLLLLVTGLFMSLFAVTATKSAQTG, the AmyQ secretion efficiency was determined as 4.38. On to MPYLKRVLLLLVTGLFMSLFAVTATLSAQTG, for which the AmyQ secretion efficiency stood at 1.38. Regarding MPYLKRVLLLLVTGLFMSLFAVTATMSAQTG, the AmyQ secretion efficiency amounted to 1.29.

Take MPYLKRVLLLLVTGLFMSLFAVTATPSAQTG: the AmyQ secretion efficiency was 4.75. Take MPYLKRVLLLLVTGLFMSLFAVTATQSAQTG: the AmyQ secretion efficiency is 3.84. For the sequence MPYLKRVLLLLVTGLFMSLFAVTATRSAQTG, the AmyQ secretion efficiency was found to be 3.54. On to MPYLKRVLLLLVTGLFMSLFAVTATSSAQTG, for which the AmyQ secretion efficiency was determined as 1.26. For MPYLKRVLLLLVTGLFMSLFAVTATVSAQTG the value was 1.43; for MPYLKRVLLLLVTGLFMSLFAVTATWSAQTG, 6.1; for MPYLKRVLLLLVTGLFMSLFAVTATYSAQTG, 3.91. The same measure for MPYLKRVLLLLVTGLFMSLFEEEATASAQTG: 1.12; for MPYLKRVLLLLVTGLFMSLFFLIAVTATASAQTG: 1.09; for MPYLKRVLLLLVTGLFMSLFGDTATASAQTG: 1.23. The sequence MPYLKRVLLLLVTGLFMSLFIFLIVISAVTATASAQTG showed an AmyQ secretion efficiency of 1.25. Sequence MPYLKRVLLLLVTGLFMSLFRKKATASAQTG yielded an AmyQ secretion efficiency of 7.42.

MPYLKRVLLLLVTGLFMSLFRKRRKRASAQTG came in with an AmyQ secretion efficiency of 6.94. For MPYLKRVRKLLVTGLFMSLFAVTATASAQTG the value was 1.73.
